Data taken from US8673850B2, “PCSK9 inhibitors and methods of use thereof” (Institut de Recherches Cliniques de Montreal, priority 2008, dated 2014).

Biological target: PCSK9-V5 (Homo sapiens, UniProt Q8NBP7)
Assay: Far Western blot with PCSK9-V5 conditioned media
Format: binding
Design: made in house; host or cells: CHO-K1 cells (conditioned medium, not purified)
Details: lysates of cells overexpressing the construct
Procedure: Lysates (20 to 30 μg protein), media or purified AnxA2-(His)6 were heated in reducing or non-reducing Laemmli sample buffer, resolved by SDS-PAGE on 8% glycine gels and electro-transferred onto nitrocellulose membranes (GE Healthcare). Following 1 h incubation in 5% skim milk in Tris-Buffered Saline-0.1% Tween (TBST), membranes where incubated with conditioned media of CHO-K1 cells overexpressing either an empty vector (pIRES-V5), PC5A-V5, CHRD-V5, pIRES-D374Y, PCSK9-V5 or its V5-tagged mutants, or incubated with purified AnxA2-(His)6 for 3 h at room temperature. […] For competition experiments, 10 μg of His-tagged PCSK9 or CHRD were added to the PCSK9-V5 media before Far Western blotting. For PCSK9 binding requirements with the ˜33 kDa protein, 1M NaCl, 10 mg/ml heparin, 1M NaCl+10 mg/ml heparin, or 100 mM EDTA were added to the PCSK9-V5 conditioned media used for Far Western blotting.
Wild type human Annexin A2 (AnxA2) (ATCC #MGC-2257) and Annexin A1 (AnxA1) (ATCC #MGC-5095) were purchased from ATCC and subcloned into NheI/SacI digested pIRES2-EGFP vector. An HA epitope ([…]) was fused by PCR mutagenesis at the C-terminus of both AnxA1 and AnxA2. Two-steps PCRs were performed on AnxA2 cDNA to introduce point mutations (N62Q; S64A; K28S+D34N+E36S; R37S+E43H+K47M; 77RRTKK (SEQ ID NO: 26)>AATAK (SEQ ID NO: 27); ^77RRTKK (SEQ ID NO: 26)>AATAA (SEQ ID NO: 28); ^77RRTKKELASALK (SEQ ID NO: 29)>^77AATAAELASALA (SEQ ID NO: 30); 80KKELA (SEQ ID NO: 31)>GKPLD (SEQ ID NO: 32)), or amino acid (aa) deletions (Δ2-24, aa 2-24; ΔR1, aa 37-108; ΔR2, aa 109-192; ΔR3, aa 193-268; ΔR4, aa 269-339; Δ25-36, aa 25-36; Δ37-48, aa 37-48; Δ49-61, aa 49-61; Δ62-75, aa 62-75; Δ37-66, aa 37-66; Δ74-88, aa 74-88; Δ82-88, aa 82-88; Δ89-101, aa 89-101; Δ102-108, aa 102-108) into pIRES2-AnxA2-EGFP vector (see Table 3 above). In addition, using PCR, the AnxA2 segment aa 49-75 was swapped with the corresponding AnxA1 segment aa 58-84 [AnxA1 (aa 58-84)>AnxA2 (aa 49-75)]. Similar swaps were performed for the corresponding AnxA2 sequence with AnxA1 (AnxA1>AnxA2: aa 25-27; aa 28-30; aa 31-33; aa 34-36; aa 37-39; aa 40-42; aa 43-45; aa 46-48; aa 49-75; aa 49-61; aa 62-75). All final cDNA constructs were verified by DNA sequencing.

Chain of PCSK9-V5 (Q8NBP7 153-692): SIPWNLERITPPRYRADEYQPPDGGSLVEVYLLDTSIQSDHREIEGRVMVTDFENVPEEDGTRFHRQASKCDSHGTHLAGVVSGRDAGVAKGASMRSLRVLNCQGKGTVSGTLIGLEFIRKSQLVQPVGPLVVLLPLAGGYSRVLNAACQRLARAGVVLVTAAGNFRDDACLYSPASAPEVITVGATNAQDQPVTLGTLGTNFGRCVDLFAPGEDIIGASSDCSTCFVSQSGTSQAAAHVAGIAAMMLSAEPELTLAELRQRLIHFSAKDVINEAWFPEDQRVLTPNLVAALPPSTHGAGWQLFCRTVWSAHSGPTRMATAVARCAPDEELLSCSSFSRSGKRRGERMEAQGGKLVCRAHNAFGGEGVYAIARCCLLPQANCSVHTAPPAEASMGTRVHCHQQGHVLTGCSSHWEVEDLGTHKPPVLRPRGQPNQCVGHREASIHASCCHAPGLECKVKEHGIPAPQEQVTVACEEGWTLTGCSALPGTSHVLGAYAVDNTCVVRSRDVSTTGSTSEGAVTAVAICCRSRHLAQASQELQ
Chain of PCSK9-V5 (Q8NBP7 31-152 partner limits assumed): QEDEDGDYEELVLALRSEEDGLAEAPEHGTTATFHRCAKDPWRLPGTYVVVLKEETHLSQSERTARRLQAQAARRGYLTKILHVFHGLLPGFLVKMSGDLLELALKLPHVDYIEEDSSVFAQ

Row | Molecule | PCSK9-V5 binding by Far Western blot
1 | Δ2-24: AnxA2 deletion of aa 2-24 | does not affect binding to PCSK9
2 | ΔR2: AnxA2 deletion of aa 109-192 (protein) MSTVHEILCKLSLEGDHSTPPSAYGSVKAYTNFDAERDALNIETAIKTKGVDEVTIVNILTNRSNAQRQDIAFAYQRRTKKELASALKSALSGHLETVILGLLKTPAQQDARDLYDAGVKRKGTDVPKWISIMTERSVPHLQKVFDRYKSYSPYDMLESIRKEVKGDLENAFLNLVQCIQNKPLYFADRLYDSMKGKGTRDKVLIRIMVSRSEVDMLKIRSEFKRKYGKSLYYYIQQDTKGDYQKALLYLCGGDDYPYDVPDYA | had no major effect
3 | ΔR4: AnxA2 deletion of aa 269-339 (protein) MSTVHEILCKLSLEGDHSTPPSAYGSVKAYTNFDAERDALNIETAIKTKGVDEVTIVNILTNRSNAQRQDIAFAYQRRTKKELASALKSALSGHLETVILGLLKTPAQYDASELKASMKGLGTDEDSLIEIICSRTNQELQEINRVYKEMYKTDLEKDIISDTSGDFRKLMVALAKGRRAEDGSVIDYELIDQDARDLYDAGVKRKGTDVPKWISIMTERSVPHLQKVFDRYKSYSPYDMLESIRKEVKGDLENAFLNLVQCIQNKPLYPYDVPDYA | had no major effect
4 | Δ49-61: AnxA2 deletion of aa 49-61 (protein) MSTVHEILCKLSLEGDHSTPPSAYGSVKAYTNFDAERDALNIETAIKTNRSNAQRQDIAFAYQRRTKKELASALKSALSGHLETVILGLLKTPAQYDASELKASMKGLGTDEDSLIEIICSRTNQELQEINRVYKEMYKTDLEKDIISDTSGDFRKLMVALAKGRRAEDGSVIDYELIDQDARDLYDAGVKRKGTDVPKWISIMTERSVPHLQKVFDRYKSYSPYDMLESIRKEVKGDLENAFLNLVQCIQNKPLYFADRLYDSMKGKGTRDKVLIRIMVSRSEVDMLKIRSEFKRKYGKSLYYYIQQDTKGDYQKALLYLCGGDDYPYDVPDYA | abolished PCSK9 binding
5 | ΔR1: AnxA2 deletion of aa 37-108 (protein) MSTVHEILCKLSLEGDHSTPPSAYGSVKAYTNFDAEYDASELKASMKGLGTDEDSLIEIICSRTNQELQEINRVYKEMYKTDLEKDIISDTSGDFRKLMVALAKGRRAEDGSVIDYELIDQDARDLYDAGVKRKGTDVPKWISIMTERSVPHLQKVFDRYKSYSPYDMLESIRKEVKGDLENAFLNLVQCIQNKPLYFADRLYDSMKGKGTRDKVLIRIMVSRSEVDMLKIRSEFKRKYGKSLYYYIQQDTKGDYQKALLYLCGGDDYPYDVPDYA | completely abrogated the interaction
6 | ΔR3: AnxA2 deletion of aa 193-268 (protein) MSTVHEILCKLSLEGDHSTPPSAYGSVKAYTNFDAERDALNIETAIKTKGVDEVTIVNILTNRSNAQRQDIAFAYQRRTKKELASALKSALSGHLETVILGLLKTPAQYDASELKASMKGLGTDEDSLIEIICSRTNQELQEINRVYKEMYKTDLEKDIISDTSGDFRKLMVALAKGRRAEDGSVIDYELIDYFADRLYDSMKGKGTRDKVLIRIMVSRSEVDMLKIRSEFKRKYGKSLYYYIQQDTKGDYQKALLYLCGGDDYPYDVPDYA | had no major effect
7 | Δ37-48: AnxA2 deletion of aa 37-48 (protein) MSTVHEILCKLSLEGDHSTPPSAYGSVKAYTNFDAEKGVDEVTIVNILTNRSNAQRQDIAFAYQRRTKKELASALKSALSGHLETVILGLLKTPAQYDASELKASMKGLGTDEDSLIEIICSRTNQELQEINRVYKEMYKTDLEKDIISDTSGDFRKLMVALAKGRRAEDGSVIDYELIDQDARDLYDAGVKRKGTDVPKWISIMTERSVPHLQKVFDRYKSYSPYDMLESIRKEVKGDLENAFLNLVQCIQNKPLYFADRLYDSMKGKGTRDKVLIRIMVSRSEVDMLKIRSEFKRKYGKSLYYYIQQDTKGDYQKALLYLCGGDDYPYDVPDYA | abolished PCSK9 binding
